Measured values from patent CN116970083A (SHANGHAI UNICAR THERAPY BIO MEDICINE TECH CO LTD, dated 2023).

T1: Human TROP-2/TACSTD2 Protein, His Tag (带有His标签的人滋养层细胞表面抗原2(Trop2)胞外段蛋白) (human, UniProt P09758 27-274)
T1 construct: extracellular domain; Bought protein; also called Trop2-His; Trop2抗原; not shown: His tag
T1 sequence (looked up): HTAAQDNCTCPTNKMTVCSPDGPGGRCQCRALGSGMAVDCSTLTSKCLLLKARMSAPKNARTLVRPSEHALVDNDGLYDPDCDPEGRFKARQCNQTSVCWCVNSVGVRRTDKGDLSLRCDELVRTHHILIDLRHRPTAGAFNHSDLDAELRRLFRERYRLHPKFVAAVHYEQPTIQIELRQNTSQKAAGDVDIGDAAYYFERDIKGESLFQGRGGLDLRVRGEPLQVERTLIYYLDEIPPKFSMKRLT


Key:
[1] = target: T1, Human TROP-2/TACSTD2 Protein, His Tag …; test: phage ELISA, Trop2-His coated at 1ug/ml, anti-M13-HRP, OD450
[2] = target: Trop2 on the surface of tumour cell lines (H1975, MDA-MB-231, Bxpc3, T24, PC-9) (UniProt P09758); test: flow cytometry on H1975 cells, antibody 5ug/ml, anti-Fc PE; blank cells without antibody MFI 621
[3] = target: Trop2 on the surface of tumour cell lines (H1975, MDA-MB-231, Bxpc3, T24, PC-9) (UniProt P09758); test: flow cytometry on Bxpc3 cells, antibody 5ug/ml, anti-Fc PE; blank cells without antibody MFI 557
[4] = target: T1, Human TROP-2/TACSTD2 Protein, His Tag …; test: ELISA, Trop2-His coated at 1ug/ml, antibody diluted 3.3-fold from 5ug/ml, anti-human IgG-Fc HRP
[5] = target: Trop2 on the surface of tumour cell lines (H1975, MDA-MB-231, Bxpc3, T24, PC-9) (UniProt P09758); test: flow cytometry on MDA-MB-231 cells, antibody 5ug/ml, anti-Fc PE; blank cells without antibody MFI 938

| Binder | binding result [1] | MFI (Median fluorescence intensity) [2] | MFI (Median fluorescence intensity) [3] | binding result [4] | MFI (Median fluorescence intensity) [5] |
| --- | --- | --- | --- | --- | --- |
| 抗Trop2阳性克隆3 (T3), scFv displayed on phage (scFv, Tested as phage supernatant (scFv on M13 phage); also called T3单克隆; T3抗Trop2 scFv) scFv: DIQMTQSPSTLSASVGDRVTITCRASQSISSWLAWYQQKPGKAPKLLIYKASSLESGVPPRFSGSGSGAEFTLTISSLQPDDFATYYCQQYNSYPLTFGGGTKVEVKGGGGSGGGGSGGGGSEVQLVQSGGGLVQPGGSLRLSCEDSGFTFSSYWMSWVRQAPGKGLEWVSSISSSSSYIYYADSVKGRFTISRDNAKNSLYLQMNSLRGEDTAVYYCAREQSSSGFDYWGQGTLVTVSS | binds | – | – | – | – |
| T3单克隆抗体 (T3抗Trop2单克隆抗体) (antibody, human IgG1, kappa, V domains shown, also called Trop2抗体) VH: EVQLVQSGGGLVQPGGSLRLSCEDSGFTFSSYWMSWVRQAPGKGLEWVSSISSSSSYIYYADSVKGRFTISRDNAKNSLYLQMNSLRGEDTAVYYCAREQSSSGFDYWGQGTLVTVSS VL: DIQMTQSPSTLSASVGDRVTITCRASQSISSWLAWYQQKPGKAPKLLIYKASSLESGVPPRFSGSGSGAEFTLTISSLQPDDFATYYCQQYNSYPLTFGGGTKVEVKR | – | 65600 | 174000 | binds | 3150 |
